Measurements published in US20110223163A1 (US Dept. of Health and Human Services, published 2011).

Assays:
[1] = molecular target: synthetic 10-mer peptide of γ-D-glutamic acids
BSA = BSA (UniProt P02769 25-607); assay: ELISA, full-length IgG
Chain of BSA (P02769 25-607 limits assumed): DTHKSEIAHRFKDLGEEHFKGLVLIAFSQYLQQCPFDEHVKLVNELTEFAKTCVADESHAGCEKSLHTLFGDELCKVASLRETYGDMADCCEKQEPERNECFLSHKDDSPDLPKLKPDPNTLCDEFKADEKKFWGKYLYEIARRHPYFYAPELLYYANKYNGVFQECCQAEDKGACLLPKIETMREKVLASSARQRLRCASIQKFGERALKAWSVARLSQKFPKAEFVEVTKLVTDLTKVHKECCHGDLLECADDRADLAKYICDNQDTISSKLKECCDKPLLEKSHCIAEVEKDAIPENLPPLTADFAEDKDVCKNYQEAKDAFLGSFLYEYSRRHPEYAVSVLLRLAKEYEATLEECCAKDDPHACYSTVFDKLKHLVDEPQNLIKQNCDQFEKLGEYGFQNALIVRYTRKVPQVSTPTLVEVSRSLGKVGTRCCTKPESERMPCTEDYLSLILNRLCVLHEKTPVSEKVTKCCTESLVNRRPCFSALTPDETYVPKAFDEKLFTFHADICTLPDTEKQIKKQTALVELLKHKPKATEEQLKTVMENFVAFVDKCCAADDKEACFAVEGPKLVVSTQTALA

| Binder | Kd [1] | koff [1] | kon [1] | binding result (BSA) |
| --- | --- | --- | --- | --- |
| anti-γDPGA chimpanzee monoclonal antibody 4C, full-length IgG with human γ1 constant regions (antibody, V domains shown, also called 4C IgG; IgG1 of anti-γDPGA 4C monoclonal antibody) VH: LEESGGGLVKPGDSLRLSCAASGFTFSVYAMHWVRQAPEKGLEWVSTIGAGGNTWHSDSVKGRYTIARDNSQNTLSLQMNSLRAEDTAVYYCVRRGYCSSTRCDSNDAFDIWGQGTMVTVS VL: APMTQSPSSLSASVGDRVSITCRASQDINDFLAWFQQKPGKAPKRLIFRTSSLQGGVSSRFSGSGSGTEFTLTISNLRPEDFATYYCLQHSSYPPTFGQGTKLEISR | 0.55 nM | 0.0023 s⁻¹ | 4.2e+06 M⁻¹ s⁻¹ | no binding |
| anti-γDPGA chimpanzee monoclonal antibody 11D, full-length IgG with human γ1 constant regions (antibody, V domains shown, also called 11D IgG; CH11D-hG1) VH: LESGGGLVKPGGSLTLSCAASGFTFSTYAMHWVRQAPEKGLEWVSTIGRSGDTLYSDSVKGRFSISRDNSKNTLYLQMNSLRAEDTAVYYCARKGYCSSTNCQSQYYFDYWGQGTLVTVS VL: ELTQSPSSLSASVGGRVTITCRASQDVNTWLAWYQQKPGKAPKPLIYAASSLQGGVPSRFSGSGSGTDFTLTISSLQPEDFATYYCQQYKHYPLTFGGGTKVEIKR | 0.082 nM | 9.04e-05 s⁻¹ | 1.1e+06 M⁻¹ s⁻¹ | no binding |
